No end group written: not given here. *: point of attachment. FITC = O=C1OC2(c3ccc(O)cc3Oc3cc(O)ccc32)c2ccc(NC(=S)*)cc21
How the values were obtained:
[1] = molecular target: T1, PBP1b R141A/R397A (E. coli, UniProt P02919 1-844, R141A | R397A); experiment: cell-based or functional assay
T1 sequence (looked up): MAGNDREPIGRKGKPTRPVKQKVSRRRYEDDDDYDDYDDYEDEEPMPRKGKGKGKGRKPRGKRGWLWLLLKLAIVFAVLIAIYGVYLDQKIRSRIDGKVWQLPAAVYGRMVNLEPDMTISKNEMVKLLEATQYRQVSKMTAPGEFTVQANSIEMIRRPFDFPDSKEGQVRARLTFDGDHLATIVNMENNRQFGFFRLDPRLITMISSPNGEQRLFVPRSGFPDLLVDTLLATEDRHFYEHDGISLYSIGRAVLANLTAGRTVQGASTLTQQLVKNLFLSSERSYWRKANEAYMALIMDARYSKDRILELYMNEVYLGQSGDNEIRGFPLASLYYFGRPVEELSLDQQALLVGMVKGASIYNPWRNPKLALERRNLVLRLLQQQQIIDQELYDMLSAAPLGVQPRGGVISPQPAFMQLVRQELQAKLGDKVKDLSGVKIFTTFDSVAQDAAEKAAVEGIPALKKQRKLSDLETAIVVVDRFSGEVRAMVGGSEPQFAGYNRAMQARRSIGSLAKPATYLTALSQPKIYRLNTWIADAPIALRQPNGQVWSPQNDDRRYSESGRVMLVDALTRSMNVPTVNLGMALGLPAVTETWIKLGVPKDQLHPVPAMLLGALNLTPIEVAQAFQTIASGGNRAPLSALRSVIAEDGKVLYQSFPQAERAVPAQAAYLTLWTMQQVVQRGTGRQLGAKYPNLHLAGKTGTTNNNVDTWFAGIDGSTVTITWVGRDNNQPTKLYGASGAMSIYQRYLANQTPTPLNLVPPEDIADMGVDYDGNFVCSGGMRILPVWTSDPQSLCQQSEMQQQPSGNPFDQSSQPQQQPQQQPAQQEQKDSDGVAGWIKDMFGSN

[2] = molecular target: T2, PBP1b (Escherichia coli, UniProt P02919); conditions: cited from earlier work
T2 sequence (P02919 1-799 isoform P02919-2): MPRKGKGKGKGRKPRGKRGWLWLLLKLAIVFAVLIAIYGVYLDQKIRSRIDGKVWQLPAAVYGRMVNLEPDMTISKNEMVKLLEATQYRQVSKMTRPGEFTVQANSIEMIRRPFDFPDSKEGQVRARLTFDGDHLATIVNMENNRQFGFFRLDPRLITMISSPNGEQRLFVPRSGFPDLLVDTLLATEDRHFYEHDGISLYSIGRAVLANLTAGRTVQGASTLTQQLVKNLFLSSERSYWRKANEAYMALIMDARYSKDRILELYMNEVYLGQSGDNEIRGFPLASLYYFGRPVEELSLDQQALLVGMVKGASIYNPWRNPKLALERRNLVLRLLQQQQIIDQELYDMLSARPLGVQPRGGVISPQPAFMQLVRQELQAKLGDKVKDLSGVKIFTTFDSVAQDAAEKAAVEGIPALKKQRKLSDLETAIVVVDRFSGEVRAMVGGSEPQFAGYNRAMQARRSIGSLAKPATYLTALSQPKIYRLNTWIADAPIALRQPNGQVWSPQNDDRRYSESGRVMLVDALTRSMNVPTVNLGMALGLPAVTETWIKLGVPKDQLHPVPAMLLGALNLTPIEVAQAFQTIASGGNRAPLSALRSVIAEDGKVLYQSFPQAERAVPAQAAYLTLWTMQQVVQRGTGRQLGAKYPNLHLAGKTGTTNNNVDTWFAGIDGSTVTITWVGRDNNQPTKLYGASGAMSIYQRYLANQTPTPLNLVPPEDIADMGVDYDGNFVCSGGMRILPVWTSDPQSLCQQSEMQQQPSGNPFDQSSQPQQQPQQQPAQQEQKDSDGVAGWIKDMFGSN
From the text: Bacteria generally have at least one bifunctional (GTase/TPase) PBP of class A and one monofunctional (TPase only) PBP of class B ([2], [13]). E. coli contains three aPBPs: PBP1a, 1b, and 1c, and two bPBPs: PBP2 and PBP3, the latter being involved in cell elongation and division, respectively ([14]). PBP1a and PBP1b are major PG synthases and at least one of them is required for cell viability ([15]).

[3] = test system: PBP1b^R141A/R397A; assay type: biochemical, Escherichia coli; conditions: versus PBP1b^WT; GTase, dansyl-lipid II; mean ± s.d. of three experiments
[4] = molecular target: T3, PBP1b (positions 58–804) (E. coli, UniProt P02919 58-804); experiment: crystal structure; co-crystallization of PBP1b (Lys58–Ser804) with moenomycin A (1:1) and EFtsN peptide (3:1), hanging drop, 20 °C; 2.4 Å; conditions: both partners purified
T3 construct: Crystallized with moenomycin A (1:1) and the EFtsN peptide (3:1); also called PBP1b (Lys58–Ser804); source: purified (details in the supporting information)
T3 sequence (looked up): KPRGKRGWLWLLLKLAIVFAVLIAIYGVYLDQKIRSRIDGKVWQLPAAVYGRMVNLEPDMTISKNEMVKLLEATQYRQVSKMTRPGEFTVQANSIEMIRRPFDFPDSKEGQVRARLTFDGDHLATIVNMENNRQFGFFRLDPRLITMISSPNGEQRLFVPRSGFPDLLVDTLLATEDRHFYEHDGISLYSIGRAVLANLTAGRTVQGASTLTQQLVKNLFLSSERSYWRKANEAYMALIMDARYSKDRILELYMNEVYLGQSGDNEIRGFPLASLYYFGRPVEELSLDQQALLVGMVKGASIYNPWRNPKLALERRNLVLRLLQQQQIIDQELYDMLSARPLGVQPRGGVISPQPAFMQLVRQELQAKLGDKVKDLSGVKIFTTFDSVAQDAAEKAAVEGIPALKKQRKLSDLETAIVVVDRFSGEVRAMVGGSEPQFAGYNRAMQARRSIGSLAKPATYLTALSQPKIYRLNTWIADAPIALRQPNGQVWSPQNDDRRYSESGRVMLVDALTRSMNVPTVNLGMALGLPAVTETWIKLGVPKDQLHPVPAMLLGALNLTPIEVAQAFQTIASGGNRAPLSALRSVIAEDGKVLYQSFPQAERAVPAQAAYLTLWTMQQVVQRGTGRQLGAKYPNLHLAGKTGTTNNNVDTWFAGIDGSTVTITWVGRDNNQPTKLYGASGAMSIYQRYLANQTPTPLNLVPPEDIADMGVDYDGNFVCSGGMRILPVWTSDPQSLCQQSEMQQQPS

[5] = test system: E. coli EJ801 (ΔponB-ponA^ts); experiment: microscopy of EJ801 cells, cell morphology and length; assay type: cell-based, Escherichia coli; design: cell length L: unit not given here; conditions: EJ801 after 1 h at 42 °C, n = 250, phase contrast, ImageJ/ObjectJ
Method: Samples were taken from the complementation cultures (42 °C) at different time (1-h intervals), and the cells were fixed as described ([63]). Photographs were taken with a cooled AxioCam MRm (Zeiss) mounted on a Zeiss Axio Imager. Z1 microscope, and the images were acquired in phase-contrast mode using the AxioVision Rel. 4.5 (Zeiss) software. The cell morphologies analysis were determined using ImageJ software (RRID:SCR_003070) running under plugin ObjectJ (RRID:SCR_019190).

[6] = molecular target: T4, PBP1bγ (penicillin-binding protein 1b, gamma form) (E. coli, UniProt P02919-2 1-799); experiment: fluorescence polarisation; fluorescence anisotropy; FITC-Lys69–Gln93 probe at 100 nM, serial dilutions of the proteins in their specific buffer, 384-well plates, 30 min at 25 °C; conditions: both partners purified
T4 construct: also called 1b WT
T4 sequence (looked up): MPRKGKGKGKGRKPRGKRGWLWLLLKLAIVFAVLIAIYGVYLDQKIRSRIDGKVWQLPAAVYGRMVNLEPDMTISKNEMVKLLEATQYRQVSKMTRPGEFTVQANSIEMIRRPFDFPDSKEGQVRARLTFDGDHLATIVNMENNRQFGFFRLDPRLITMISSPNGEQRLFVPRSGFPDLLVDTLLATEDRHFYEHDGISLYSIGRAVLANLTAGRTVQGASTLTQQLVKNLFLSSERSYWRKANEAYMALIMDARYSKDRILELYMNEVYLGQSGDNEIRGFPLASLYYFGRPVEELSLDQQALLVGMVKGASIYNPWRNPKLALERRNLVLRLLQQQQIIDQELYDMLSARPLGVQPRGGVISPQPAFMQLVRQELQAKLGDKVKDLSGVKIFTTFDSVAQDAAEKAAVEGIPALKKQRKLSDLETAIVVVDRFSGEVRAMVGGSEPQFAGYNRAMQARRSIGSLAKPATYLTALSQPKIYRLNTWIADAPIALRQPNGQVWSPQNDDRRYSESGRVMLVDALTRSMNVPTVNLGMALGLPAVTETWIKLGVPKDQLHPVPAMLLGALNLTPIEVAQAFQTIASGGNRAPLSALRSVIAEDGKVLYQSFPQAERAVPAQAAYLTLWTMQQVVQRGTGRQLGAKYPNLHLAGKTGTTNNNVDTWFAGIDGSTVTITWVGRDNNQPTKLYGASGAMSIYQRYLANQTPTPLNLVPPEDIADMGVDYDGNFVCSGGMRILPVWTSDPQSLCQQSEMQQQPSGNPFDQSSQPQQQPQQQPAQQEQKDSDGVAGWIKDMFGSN

B1: HisFtsN (full-length FtsN) (natural protein, E. coli, UniProt P29131 1-319, looked up)
chain: MAQRDYVRRSQPAPSRRKKSTSRKKQRNLPAVSPAMVAIAAAVLVTFIGGLYFITHHKKEESETLQSQKVTGNGLPPKPEERWRYIKELESRQPGVRAPTEPSAGGEVKTPEQLTPEQRQLLEQMQADMRQQPTQLVEVPWNEQTPEQRQQTLQRQRQAQQLAEQQRLAQQSRTTEQSWQQQTRTSQAAPVQAQPRQSKPASSQQPYQDLLQTPAHTTAQSKPQQAAPVARAADAPKPTAEKKDERRWMVQCGSFRGAEQAETVRAQLAFEGFDSKITTNNGWNRVVIGPVKGKENADSTLNRLKMAGHTNCIRLAAGG
fold decrease in activation of the GTase activity of PBP1b R141A/R397A by FtsN against the WT protein, continuous fluorescence assay [1]: 2 fold

B2: LpoB: outer-membrane lipoprotein LpoB (protein, UniProt P0AB38 20-213, looked up)
Penicillin-binding protein …: CVGQREPAPVEEVKPAPEQPAEPQQPVPTVPSVPTIPQQPGPIEHEDQTAPPAPHIRHYDWNGAMQPMVSKMLGADGVTAGSVLLVDSVNNRTNGSLNAAEATETLRNALANNGKFTLVSAQQLSMAKQQLGLSPQDSLGTRSKAIGIARNVGAHYVLYSSASGNVNAPTLQMQLMLVQTGEIIWSGKGAVSQQ
catalytic activities of PBP1b (literature) [2]: stimulates both of its catalytic activities | activation of PBP1b^R141A/R397A by LpoB [3]: remained unchanged

B3: EFtsN peptide (Leu75–Gln93), unlabeled (peptide)
peptide: LPPKPEERWRYIKELESRQ
notes: FtsN, E. coli, residues Leu75–Gln93 (essential region around helix H2); also called essential region of FtsN; synthetic peptide Leu75–Gln93; source: synthetic peptide, bought: Synpeptide (Shanghai, China)
binding result [4]: binds

B4: PBP1b^WT: PBP1b wild-type (protein)
chain: MPRKGKGKGKGRKPRGKRGWLWLLLKLAIVFAVLIAIYGVYLDQKIRSRIDGKVWQLPAAVYGRMVNLEPDMTISKNEMVKLLEATQYRQVSKMTRPGEFTVQANSIEMIRRPFDFPDSKEGQVRARLTFDGDHLATIVNMENNRQFGFFRLDPRLITMISSPNGEQRLFVPRSGFPDLLVDTLLATEDRHFYEHDGISLYSIGRAVLANLTAGRTVQGASTLTQQLVKNLFLSSERSYWRKANEAYMALIMDARYSKDRILELYMNEVYLGQSGDNEIRGFPLASLYYFGRPVEELSLDQQALLVGMVKGASIYNPWRNPKLALERRNLVLRLLQQQQIIDQELYDMLSARPLGVQPRGGVISPQPAFMQLVRQELQAKLGDKVKDLSGVKIFTTFDSVAQDAAEKAAVEGIPALKKQRKLSDLETAIVVVDRFSGEVRAMVGGSEPQFAGYNRAMQARRSIGSLAKPATYLTALSQPKIYRLNTWIADAPIALRQPNGQVWSPQNDDRRYSESGRVMLVDALTRSMNVPTVNLGMALGLPAVTETWIKLGVPKDQLHPVPAMLLGALNLTPIEVAQAFQTIASGGNRAPLSALRSVIAEDGKVLYQSFPQAERAVPAQAAYLTLWTMQQVVQRGTGRQLGAKYPNLHLAGKTGTTNNNVDTWFAGIDGSTVTITWVGRDNNQPTKLYGASGAMSIYQRYLANQTPTPLNLVPPEDIADMGVDYDGNFVCSGGMRILPVWTSDPQSLCQQSEMQQQPSGNPFDQSSQPQQQPQQQPAQQEQKDSDGVAGWIKDMFGSN
cell length L [5]: 2.17 ± 0.46

B5: FITC-labeled peptide (FITC-Lys69–Gln93) of FtsN (peptide)
peptide: {FITC}-KVTGNGLPPKPEERWRYIKELESRQ
notes: also called F-EFtsN; fluorescent EFtsN peptide; source: synthetic peptide, bought: Synpeptide (Shanghai, China)
Kd [6]: 8.1 ± 1.7 µM

— article PMC7939390 (The Journal of Biological Chemistry, 2020)
